Molecular target: HECT domain of Nedd4, Y605A (as used for SPR) (UniProt P46934)
Experiment: SPR

Chain of HECT domain of Nedd4, Y605A (as used for SPR) (P46934 938-1319 Y1024A): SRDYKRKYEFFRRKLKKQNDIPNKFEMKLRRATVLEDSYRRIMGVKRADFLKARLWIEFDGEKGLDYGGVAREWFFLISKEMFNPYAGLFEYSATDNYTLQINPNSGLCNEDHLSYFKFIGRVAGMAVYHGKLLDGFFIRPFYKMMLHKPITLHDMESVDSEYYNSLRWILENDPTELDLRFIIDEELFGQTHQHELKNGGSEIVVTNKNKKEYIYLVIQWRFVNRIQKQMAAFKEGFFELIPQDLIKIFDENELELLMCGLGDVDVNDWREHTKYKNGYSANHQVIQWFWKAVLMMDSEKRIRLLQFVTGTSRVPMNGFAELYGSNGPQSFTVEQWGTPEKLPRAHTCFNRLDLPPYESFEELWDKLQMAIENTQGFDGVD

fold decrease in binding against wild-type HECT^Nedd4: 20 fold
Substance: ubiquitin (monomeric) (from UniProt P0CG48 1-76) (natural protein)

Reference: article PMC3077247
